# What was measured:
# [1] = tested on: platelets in human platelet-rich plasma; test: Platelet activation by flow cytometry (CD62P); assay type: cell-based; details: highest dose
# Method: Blood from healthy consented donors was either collected into 3.8% sodium citrate tube with a blood/anticoagulant ratio of 9:1 or serum tube at Centre for Blood Research, University of British Columbia. The protocol was approved by the University of British Columbia clinical ethical committee and written consent was obtained from each individual donor. Platelet-rich plasma (PRP) was prepared by centrifuging citrated whole blood samples at 150×g for 10 min in an Allegra X-22R™ Centrifuge (Beckman Coulter™, Canada). Serum was prepared by centrifuging the blood collected in serum tube at 1200×g for 30 min one hour after blood collection.
# The level of platelet activation after exposure to polyP inhibitors was quantified by flow cytometry. Ninety microliters of platelet rich plasma (PRP) was incubated at 37° C. with 10 μL of either 10 mg/mL or 20 mg/mL of UHRA, protamine or PEI stock solution (final polymer concentration 1 mg/mL and 2 mg/mL respectively) in PBS. […] The level of platelet activation was analyzed in a BD FACSCanto II flow cytometer (Becton Dickinson™) by gating platelets specific events based on their forward scattering profile (size of individual platelet). Activation of platelets was expressed as the percentage of platelet activation marker CD62-PE fluorescence detected in the 10,000 total events counted. […]
# [2] = mice; intravenous injection; for UHRAs maximum injected dose, maximum tolerated dose not reached; cited from earlier work
# human fibrinogen = target: T1, human fibrinogen (Homo sapiens, UniProt P02671+P02675+P02679); test: Fibrin clot turbidity and scanning electron microscopy; details: fibrin polymerization assay
# T1 sequence (P02671 20-644 isoform P02671-2 limits assumed): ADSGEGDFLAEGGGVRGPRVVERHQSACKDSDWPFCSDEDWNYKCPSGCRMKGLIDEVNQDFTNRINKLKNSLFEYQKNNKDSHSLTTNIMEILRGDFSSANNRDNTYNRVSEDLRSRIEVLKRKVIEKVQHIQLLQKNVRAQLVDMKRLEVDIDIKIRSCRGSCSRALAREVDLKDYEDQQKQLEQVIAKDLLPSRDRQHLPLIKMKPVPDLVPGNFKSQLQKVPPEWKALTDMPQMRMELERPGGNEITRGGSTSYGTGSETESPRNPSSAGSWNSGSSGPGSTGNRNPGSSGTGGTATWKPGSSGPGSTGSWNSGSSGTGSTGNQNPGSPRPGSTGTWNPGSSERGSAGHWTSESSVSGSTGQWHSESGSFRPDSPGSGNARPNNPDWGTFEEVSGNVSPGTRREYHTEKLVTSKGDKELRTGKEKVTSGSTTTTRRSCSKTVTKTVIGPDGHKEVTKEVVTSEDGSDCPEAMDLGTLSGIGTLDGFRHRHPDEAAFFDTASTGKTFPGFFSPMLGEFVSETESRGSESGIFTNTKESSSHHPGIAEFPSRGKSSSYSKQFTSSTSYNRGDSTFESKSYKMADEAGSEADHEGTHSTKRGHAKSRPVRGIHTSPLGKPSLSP
# T1 sequence (P02675 45-491 limits assumed): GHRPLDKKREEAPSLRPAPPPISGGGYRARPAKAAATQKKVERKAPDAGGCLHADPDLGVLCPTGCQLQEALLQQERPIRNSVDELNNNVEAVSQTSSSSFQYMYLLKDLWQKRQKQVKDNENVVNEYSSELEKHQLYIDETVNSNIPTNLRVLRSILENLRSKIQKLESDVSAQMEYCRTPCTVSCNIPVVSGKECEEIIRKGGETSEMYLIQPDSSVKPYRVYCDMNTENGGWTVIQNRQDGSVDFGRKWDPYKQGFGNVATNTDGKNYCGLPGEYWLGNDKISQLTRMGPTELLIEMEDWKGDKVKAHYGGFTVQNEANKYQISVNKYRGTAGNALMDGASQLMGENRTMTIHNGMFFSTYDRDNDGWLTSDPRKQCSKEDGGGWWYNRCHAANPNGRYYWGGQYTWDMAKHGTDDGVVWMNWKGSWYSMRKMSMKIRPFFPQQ
# T1 sequence (P02679 27-437 isoform P02679-2 limits assumed): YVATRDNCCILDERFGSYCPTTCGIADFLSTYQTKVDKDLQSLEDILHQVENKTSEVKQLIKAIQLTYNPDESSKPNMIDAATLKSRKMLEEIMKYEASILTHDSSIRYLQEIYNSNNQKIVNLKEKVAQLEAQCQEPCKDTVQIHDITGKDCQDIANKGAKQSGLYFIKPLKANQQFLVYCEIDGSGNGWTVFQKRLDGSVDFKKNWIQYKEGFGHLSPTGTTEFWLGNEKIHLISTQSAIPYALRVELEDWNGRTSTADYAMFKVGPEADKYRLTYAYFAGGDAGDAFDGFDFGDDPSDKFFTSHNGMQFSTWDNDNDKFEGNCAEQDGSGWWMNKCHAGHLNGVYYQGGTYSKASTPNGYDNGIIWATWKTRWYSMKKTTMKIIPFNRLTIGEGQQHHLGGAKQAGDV
# Method: The morphology of clots formed in presence of UHRA and protamine was determined by scanning electron microscopy (SEM) analysis. All samples for SEM were randomly coded and blinded to the individual performing imaging and analysis to avoid bias. Fibrin clots were formed in sterile round-bottomed 5 mL polypropylene tubes (BD Falcon) by mixing purified human fibrinogen (200 μL, 3 mg/mL) in 20 mM HEPES (pH 7.4 and 150 mM NaCl) with 2.5 NIHU/mL thrombin and 3 mM CaCl2 and UHRA or protamine (in HEPES buffer) (0-500 μg/mL). All concentrations are final. Control clot was prepared in the absence of UHRA or protamine. After incubating the solution for 1 hour at 37° C., clots were immediately fixed using karnovsky fixative (2.5% glutaraldehyde and 4% formaldehyde) and repeatedly washed with 0.1 M sodium cacodylate buffer (pH=7.4) followed by post-fixation with 1% v/v osmium tetroxide. The samples were washed three times with distilled water and then dehydrated with gradient ethanol series (20-95% v/v). […] Fiber diameters of all clots were measured with image analysis software package ImageJ™ (National Institutes of Health, USA). Fiber diameter (n=30) from 8 separate areas of each clot was measured and used for calculating the average fiber size formed.
substance,measurement,setting,value
protamine sulfate,platelet activation (CD62P expression),[1],about 30%
same,dose tolerated (up to),[2],up to 20 mg/kg
same,final turbidity (A405) of fibrin clots,human fibrinogen,elevated final turbidity

# — US10584243B2, “Antithrombotic compounds, methods and uses thereof” (The University of British Columbia, priority 2014, dated 2020)
